From FireProtDB (doi:10.1021/bi500238q)

B1: Dihydrofolate reductase, Q5KZ26 (parent)
chain: MISHIVAMDENRVIGKDNRLPWHLPADLAYFKRVTMGHAIVMGRKTFEAIGRPLPGRDNVVVTRNRSFRPEGCLVLHSLEEVKQWIASRADEVFIIGGAELFRATMPIVDRLYVTKIFASFPGDTFYPPISDDEWEIVSYTPGGKDEKNPYEHAFIIYERKKAK

Variants of: B1
Conditions: Geobacillus kaustophilus (strain HTA426); pH 7; Thermal; CD; Potassium Phosphate Buffer 10 mM; structure 1ZDR; whole UniProt chain shown

Variant	Tm [°C]	change of melting temperature, mutant - wild type (higher = more stable) [°C]
MISHIVAMDENRVIGKDNRMPWHLPADLAYFKRVTMGHAIVMGRKTFEAIGRPLPGRDNVVVTRNRSFRPEGCLVLHSLEEVKQWIASRADEVFIIGGAELFRATMPIVDRLYVTKIFASFPGDTFYPPISDDEWEIVSYTPGGKDEKNPYEHAFIIYERKKAK [L20M]	61.4	-4.8
MISHIVAMDENRVIGKDNRLPWHLPADLAYFKRVTMGHAIVMGRKTFEAIGRPLPGRDNVVVTRNRSFRPEGCLVLHSLEEVKQWIASRADEVFIIGGAELFRATMPIVDRLYVTKIFASFPGDTFYPDISDDEWEIVSYTPGGKDEKNPYEHAFIIYERKKAK [P129D]	64.6	-1.6
MISHIVAMDENRVIGKDNRLPWHLPADLAYFKRVTMGHAIVMGRKTFEAIGRPLPGRDNVVVTRNRSFRPEGCLVLHSLEEVKQWIASRADEVFIIGGAELFRATMPIVDRLYVTKIFASFEGDTFYPPISDDEWEIVSYTPGGKDEKNPYEHAFIIYERKKAK [P122E]	65.3	-0.9
MISHIVAMDENRVIGKDNRMPWHLPADLAYFKRVTMGHAIVMGRKTFEAIGRPLPGRDNVVVTRNRSFRPEGCLVLHSLEEVKQWIASRADEVFIIGGAELFRQTMPIVDRLYVTKIFASFPGDTFYPPISDDEWEIVSYTPGGKDEKNPYEHAFIIYERKKAK [L20M A104Q]	61.1	-5.1
MISHIVAMDENRVIGKDNRLPWHLPADLAYFKRVTMGHAIVMGRKTFEAIGRPLPGRDNVVVTRNRSFRPEGCLVLHSLEEVKQWIASRADEVFIIGGAELFRATMPIVDRLYVTKIFASFEGDTFYPDISDDEWEIVSYTPGGKDEKNPYEHAFIIYERKKAK [P122E P129D]	65	-1.2
